Measured values: patent publication US5622930A, “C1 inhibitor muteins and uses thereof” (CLB, priority 1991, dated 1997)
Positions count from the first letter of the chain named.

B1: P5 -leu:P3 -ala: C1 inhibitor mutein with Leu at position 440 (P5) and Ala at position 442 (P3) (protein, UniProt P05155 23-500, looked up, variant I440L V442A)
Plasma protease C1 inhibitor: NPNATSSSSQDPESLQDRGEGKVATTVISKMLFVEPILEVSSLPTTNSTTNSATKITANTTDEPTTQPTTEPTTQPTIQPTQPTTQLPTDSPTQPTTGSFCPGPVTLCSDLESHSTEAVLGDALVDFSLKLYHAFSAMKKVETNMAFSPFSIASLLTQVLLGAGENTKTNLESILSYPKDFTCVHQALKGFTTKGVTSVSQIFHSPDLAIRDTFVNASRTLYSSSPRVLSNNSDANLELINTWVAKNTNNKISRLLDSLPSDTRLVLLNAIYLSAKWKTTFDPKKTRMEPFHFKNSVIKVPMMNSKKYPVAHFIDQTLKAKVGQLQLSHNLSLVILVPQNLKHRLEDMEQALSPSVFKAIMEKLEMSKFQPTLLTLPRIKVTTSQDMLSIMEKLEFFDFSYDLNLCGLTEDPDLQVSAMQHQTVLELTETGVEAAAASALSAARTLLVFEVQQPFLFVLWDQQHKFPVFMGRVYDPRA
B2: P5 -leu:P3 -leu: C1 inhibitor mutein with Leu at position 440 (P5) and Leu at position 442 (P3) (protein, UniProt P05155 23-500, looked up, variant I440L V442L)
Plasma protease C1 inhibitor: B1 Plasma protease C1 inhibitor with A442L

System: HNE
Assay: inactivation of C1 inhibitor muteins by elastase (protease sensitivity)
Type: biochemical
Settings: neutrophil elastase as the source of protease; compared to wild type C1 inhibitor
From the text: FIG. 2 presents a generalized assay screening format for determining both the inhibitory (complex formation) or protease sensitivity (inactivation) of the C1 muteins. The latter measures inactivation of the C1 inhibitor muteins by non-target proteases. This procedure is also described by Eldering et al., 1988, in J. of Biological Chem., 263: 11776. Modifications of these methods are also known in the art.
Using similar approaches, the non-target protease sensitivity of the C1 inhibitor muteins may be determined. Numerous assays may be employed that measure the amount of intact C1 inhibitor mutein, or fragments that are derived from the muteins, remaining after exposure to protease. […] A solid phase assay is preferred whereby C1 inhibitor muteins are reacted with non-target protease bound to a solid matrix and the amount of proteolysis of the muteins measured by determining the amount of intact mutein remaining, or preferably by detecting fragments of the mutein.
An exemplary non-target protease that cleaves C1 is neutrophil elastase. Thus, this enzyme may be coupled to CNBr treated Sepharose 4B, and incubated with a C1 inhibitor mutein, and the presence of proteolytically cleaved C1 mutein monitored using a number of techniques. […] Subsequently, the amount of bound cleaved C1 inhibitor can be determined using a second radiolabelled antibody that recognizes the cleaved molecule. […]

Row | Molecule | susceptibility to inactivation
1 | B1 | significantly reduced susceptibility to inactivation
2 | B2 | significantly reduced susceptibility to inactivation
